Substrate: O=P(O)(O)O
Test: cells, lysate or membranes
Conditions: whole-cell transport in C. crescentus delta-pstS expressing pitA, 0.1-20 µM phosphate, 37 °C, labelled compound (33P tracer)

B1: PitA (Escherichia coli K-12) (protein)
chain: MLHLFAGLDLHTGLLLLLALAFVLFYEAINGFHDTANAVATVIYTRAMRSQLAVVMAAVFNFLGVLLGGLSVAYAIVHMLPTDLLLNMGSSHGLAMVFSMLLAAIIWNLGTWYFGLPASSSHTLIGAIIGIGLTNALMTGTSVVDALNIPKVLSIFGSLIVSPIVGLVFAGGLIFLLRRYWSGTKKRARIHLTPAEREKKDGKKKPPFWTRIALILSAIGVAFSHGANDGQKGIGLVMLVLIGVAPAGFVVNMNATGYEITRTRDAINNVEAYFEQHPALLKQATGADQLVPAPEAGATQPAEFHCHPSNTINALNRLKGMLTTDVESYDKLSLDQRSQMRRIMLCVSDTIDKVVKMPGVSADDQRLLKKLKSDMLSTIEYAPVWIIMAVALALGIGTMIGWRRVATTIGEKIGKKGMTYAQGMSAQMTAAVSIGLASYTGMPVSTTHVLSSSVAGTMVVDGGGLQRKTVTSILMAWVFTLPAAVLLSGGLYWLSLQFL
  Km: 1.9 µM

From paper PMC11208175
